B1: chicken netrin‐2L (netrin‐2‐like) (ligand)
chain: not shown
notes: netrin-2 (netrin-2-like), chicken, used in place of human netrin-3 as its ortholog; Used because recombinant human netrin-3 was not soluble; also called NTN2L; NTN‐2L; source: recombinant

Legend:
[1] = target: B1; assay: BLI; OctetRED96; netrin-1 or netrin-2 coated on HIS1K biosensors, UNC5 ECDs in solution at 3.12-100 nM; 30°C, 1,000 rpm, PBS, 0.02% Tween-20, 0.1% BSA; 5 min association, 5 min dissociation; 1:1 binding model; conditions: both partners purified
[2] = target: T1, extra‐cellular domain (ECD) of mouse DCC (mouse, UniProt P70211 26-1097); assay: BLI; OctetRED96; ECDs of mNeogenin or mDCC coated on AHC biosensors, hNetrin-1 or chNetrin-2 in solution at 3.12-100 nM; 30°C, PBS, 0.02% Tween-20, 0.1% BSA with 1 µg/ml Dextran 5,000; 1:1 binding model; conditions: both partners purified
T1 construct: DCC (deleted in colorectal carcinoma), mouse, extracellular domain; The Fc is inferred from the capture on AHC biosensors; also called mDCC; source: recombinant
T1 sequence (P70211 26-1097): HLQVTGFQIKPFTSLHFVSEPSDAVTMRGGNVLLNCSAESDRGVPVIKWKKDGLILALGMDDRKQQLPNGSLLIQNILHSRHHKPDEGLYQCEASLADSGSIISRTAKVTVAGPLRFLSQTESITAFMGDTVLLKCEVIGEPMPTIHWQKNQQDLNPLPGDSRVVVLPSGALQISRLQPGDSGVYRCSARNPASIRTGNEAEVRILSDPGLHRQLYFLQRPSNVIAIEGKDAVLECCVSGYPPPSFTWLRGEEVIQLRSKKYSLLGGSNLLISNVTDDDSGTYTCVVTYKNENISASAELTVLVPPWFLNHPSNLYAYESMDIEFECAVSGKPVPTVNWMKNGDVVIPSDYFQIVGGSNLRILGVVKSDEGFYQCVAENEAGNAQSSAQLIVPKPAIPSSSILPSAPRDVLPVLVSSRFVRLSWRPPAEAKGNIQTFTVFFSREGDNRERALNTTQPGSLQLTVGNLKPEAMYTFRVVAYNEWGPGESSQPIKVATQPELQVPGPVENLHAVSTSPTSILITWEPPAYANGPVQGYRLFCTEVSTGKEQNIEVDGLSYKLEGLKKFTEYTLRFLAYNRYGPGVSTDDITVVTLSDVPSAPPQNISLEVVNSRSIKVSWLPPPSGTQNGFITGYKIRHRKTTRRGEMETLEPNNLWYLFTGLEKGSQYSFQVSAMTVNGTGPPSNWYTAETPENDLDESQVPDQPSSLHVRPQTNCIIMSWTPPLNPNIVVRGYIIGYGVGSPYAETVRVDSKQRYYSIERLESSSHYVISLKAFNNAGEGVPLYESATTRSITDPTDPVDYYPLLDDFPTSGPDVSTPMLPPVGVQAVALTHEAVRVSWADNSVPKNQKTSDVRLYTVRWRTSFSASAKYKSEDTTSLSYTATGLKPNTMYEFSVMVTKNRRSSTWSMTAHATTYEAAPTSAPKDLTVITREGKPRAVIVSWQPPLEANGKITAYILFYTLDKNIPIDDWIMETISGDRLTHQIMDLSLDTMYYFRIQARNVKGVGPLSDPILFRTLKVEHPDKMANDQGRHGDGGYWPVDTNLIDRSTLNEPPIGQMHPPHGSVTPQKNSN

| binding result [1] | binding result [2] | Binder |
| --- | --- | --- |
| binds |  | extra‐cellular domain (ECD) of human UNC5H3 (domain or fragment, UNC5H3 (UNC5C), human, extracellular domain; it may be an Fc chimera like the other ECDs; also called hUNC5H3; UNC5‐C; source: recombinant) not shown |
| binds |  | extra‐cellular domain (ECD) of rat UNC5H2 (Fc fusion, UNC5H2 (UNC5B), rat, extracellular domain; The Fc is inferred from the capture on AHC biosensors in the antagonism test; also called rUNC5H2; UNC5‐B; source: recombinant) not shown |
|  | binds | B1 |
| binds |  | extra‐cellular domain (ECD) of human UNC5H1 (domain or fragment, UNC5H1 (UNC5A), human, extracellular domain; it may be an Fc chimera like the other ECDs; also called hUNC5H1; UNC5A; source: recombinant) not shown |

— publication PMC8033513, “Targeting netrin‐3 in small cell lung cancer and neuroblastoma” (EMBO Molecular Medicine, 2021)
